Target: T1, 変性rFXIII-A (human) (UniProt P00488)
T1 sequence: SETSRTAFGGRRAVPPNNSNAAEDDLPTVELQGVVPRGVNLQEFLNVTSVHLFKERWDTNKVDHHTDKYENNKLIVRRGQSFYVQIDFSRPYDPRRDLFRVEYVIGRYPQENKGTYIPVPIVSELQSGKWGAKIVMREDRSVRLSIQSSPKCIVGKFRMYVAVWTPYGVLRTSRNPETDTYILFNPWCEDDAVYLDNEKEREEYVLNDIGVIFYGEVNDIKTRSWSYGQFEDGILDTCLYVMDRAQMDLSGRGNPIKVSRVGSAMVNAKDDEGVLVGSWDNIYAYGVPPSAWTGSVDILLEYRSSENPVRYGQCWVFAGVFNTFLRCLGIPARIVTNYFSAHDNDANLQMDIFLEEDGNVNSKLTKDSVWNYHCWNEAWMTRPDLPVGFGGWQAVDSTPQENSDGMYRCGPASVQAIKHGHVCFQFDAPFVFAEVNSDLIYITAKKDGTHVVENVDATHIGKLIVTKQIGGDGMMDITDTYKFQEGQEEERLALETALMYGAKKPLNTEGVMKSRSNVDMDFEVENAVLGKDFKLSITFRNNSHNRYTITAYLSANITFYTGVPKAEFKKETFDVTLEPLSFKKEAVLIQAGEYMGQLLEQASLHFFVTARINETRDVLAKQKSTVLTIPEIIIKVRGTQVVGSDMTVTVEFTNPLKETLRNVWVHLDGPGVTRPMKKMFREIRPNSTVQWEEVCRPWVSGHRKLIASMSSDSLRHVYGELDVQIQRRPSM
Assay: solid-phase ELISA: denatured vs native rFXIII-A coated

B1: ヒト抗FXIII-Aモノクローナル抗体 A75K (antibody, V domains shown)
VH: QVQLVESGGGVVQPGRSLSLSCAASGFNFISYGMHWVRQSPGKGLEWVAVISYDGSKKYYADFVKGRFTISRDNSKNTLFLQMNSLRGDDTAVFYCAKDRGFYGSGSSDYYYVMDVWGQGTTVTVSS
VL: DIQMTQSPSSLSASVGDRVTITCRASQGITNYLAWFQHKPGKAPKSLIYAASTLHRGVSSKFSGSGSGTDFTLTISNLQPEDFATYYCQQYKTYPITFGQGTRLDIK
**Q.** For B1, which fold change of binding, denatured against native rFXIII-A is on record?
**A.** 2 fold

From patent JP2018127443A
